Experiment [1] has as its target T1, ROI-1 peptide of MMP14 (I-A loop).
T1 construct: also called 'ROI-peptide'; 'Peptide (ROI)'
In words: peptide validation ELISA: antibody plated, biotinylated peptide titrated, streptavidin-HRP; the concentration is that of the peptide. On the technique in general: In an ELISA, binding on a coated surface is turned into a signal by an enzyme label.

For a further experiment, the target named is BSA (bovine, UniProt P02769). The experiment is described as follows: dose-response ELISA, O.D. 630. The procedure:
ELISA reactions were carried out using flat-bottom MaxiSorp™ 96-well plates (Invitrogen). Antigen coating was performed in PBS at 1001 per well and left overnight at 4° C. For standard dose response ELISA assays, antigens were plated at a concentration of 1 μg/ml. For comparative ELISA assays with multiple antigen targets, antigens were plated at a constant molar concentration of 50 nM. The plates were washed 5 times with washing buffer (1×PBS with 0.05% Tween-20 (Sigma-Aldrich)) and incubated with 1001 blocking buffer (1×PBS with 1% BSA) for 1 h at room temperature. The blocking solution was subsequently replaced by serial dilutions of either mono- or polyclonal antibodies or serum samples for 2.5 h at RT. For standard dose response ELISA assays, antibodies were introduced over a range of dilutions whereas for ELISA screens, antibodies were introduced at 100 nM. Serum samples were assayed at a dilution of 1:100. Plates were washed 5 times with washing buffer and then incubated with anti-human IgG secondary antibody conjugated to horseradish peroxidase (HRP) (Jackson Immuno Research) in PBS at a 1:5,000 dilution. After washing the plates for additional 5 times, the plates were developed using TMB (Thermo Fisher) and absorbance was measured at 630 nm with an ELISA microplate reader (Synergy HTX plate reader, Biotek). […]

BSA, sequence (P02769 25-607 limits assumed): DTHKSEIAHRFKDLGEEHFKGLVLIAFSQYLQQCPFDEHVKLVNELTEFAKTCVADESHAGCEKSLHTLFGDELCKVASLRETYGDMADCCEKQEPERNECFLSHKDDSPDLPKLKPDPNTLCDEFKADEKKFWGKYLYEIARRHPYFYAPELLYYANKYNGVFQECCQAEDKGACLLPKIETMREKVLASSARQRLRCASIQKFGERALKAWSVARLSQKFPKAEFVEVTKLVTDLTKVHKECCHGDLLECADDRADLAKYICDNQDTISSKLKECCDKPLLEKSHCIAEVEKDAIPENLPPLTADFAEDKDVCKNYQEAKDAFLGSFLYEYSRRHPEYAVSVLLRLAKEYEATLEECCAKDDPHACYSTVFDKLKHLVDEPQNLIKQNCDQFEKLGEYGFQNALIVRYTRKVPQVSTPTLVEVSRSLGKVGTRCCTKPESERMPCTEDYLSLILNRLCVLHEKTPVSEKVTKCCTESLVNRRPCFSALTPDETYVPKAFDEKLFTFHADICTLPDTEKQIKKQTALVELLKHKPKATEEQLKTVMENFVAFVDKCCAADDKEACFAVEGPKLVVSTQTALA

B1: T12 (antibody, human IgG1, V domains shown)
VH: EVQLVESGGGLVQPGGSLRLSCAASGFTFNNHDMHWVRQVTGKGLEWVSSIGNFGDTYYSGSVKGRFTISRQDAKNSLYLQMNRLRVGDTAVYYCARGRAVAGNPLDVWGKGTTVTVSS
VL: EIVMTQSPATLSVSPGETATLSCRANQTLYNNLAWYQQKPGQAPRLLIYSGSTRATGIPARFSGSGSGTEFSLTISSLQSEDFAVYYCQHYTPWPPYTFGQGTKVDFK
In the case of B1, in experiment [1], the concentration for a half-maximal effect (EC50 (read off the curve)) (in general, the concentration giving half of the maximal effect) is around 4 µg/mL.

B2: T13-GL (antibody, human IgG1, V domains shown)
VH: EVQLVESGGGLVQPGGSLRLSCAASGFTFSSYDMHWVRQATGKGLEWVSAIGTAGDTYYPGSVKGRFTISRENAKNSLYLQMNSLRAGDTAVYYCARGIAVAGFPLDVWGKGTTVTVSS
VL: not shown
notes: also called germline version of T13
Regarding B2, the binding result with BSA is recorded as “no binding (tested: about 500 nM)”.

These data come from patent publication US20240166768A1 (YEDA RESEARCH AND DEVELOPMENT, published 2024).
